Experiment [1] addresses C1s. Description: C1s activity inhibition.
For experiment [2], the target named is C1s. In words: C1s activity inhibition. This is another data set of the same source.

Read-outs that look alike come from different tables or passages of the source.

B1: rC1inh (other)
chain: NPNATSSSSQDPESLQDRGEGKVATTVISKMLFVEPILEVSSLPTTNSTTNSATKITANTTDEPTTQPTTEPTTQPTIQPTQPTTQLPTDSPTQPTTGSFCPGPVTLCSDLESHSTEAVLGDALVDFSLKLYHAFSAMKKVETNMAFSPFSIASLLTQVLLGAGENTKTNLESILSYPKDFTCVHQALKGFTTKGVTSVSQIFHSPDLAIRDTFVNASRTLYSSSPRVLSNNSDANLELINTWVAKNTNNKISRLLDSLPSDTRLVLLNAIYLSAKWKTTFDPKKTRMEPFHFKNSVIKVPMMNSKKYPVAHFIDQTLKAKVGQLQLSHNLSLVILVPQNLKHRLEDMEQALSPSVFKAIMEKLEMSKFQPTLLTLPRIKVTTSQDMLSIMEKLEFFDFSYDLNLCGLTEDPDLQVSAMQHQTVLELTETGVEAAAASAISVARTLLVFEVQQPFLFVLWDQQHKFPVFMGRVYDPRA
In the case of B1, the IC50 (usually the concentration that inhibits the measured activity by half) stood at 1.7 nM with C1s [1] and 1.8 nM in the experiment with C1s [2].

Source of the values: patent publication US20250170227A1 (published 2025).
